The source of these data is US20070271623A1 (UNIVERSITY OF COPENHAGEN, published 2007).

The labels stand for the following.
T1: MPK4 as prey (AD fusion) (Arabidopsis thaliana, UniProt Q39024 1-376, limits assumed)
T1 construct: Used in the directed two-hybrid assay with MKS1 as bait; also called MPK4 prey
T1 sequence (looked up): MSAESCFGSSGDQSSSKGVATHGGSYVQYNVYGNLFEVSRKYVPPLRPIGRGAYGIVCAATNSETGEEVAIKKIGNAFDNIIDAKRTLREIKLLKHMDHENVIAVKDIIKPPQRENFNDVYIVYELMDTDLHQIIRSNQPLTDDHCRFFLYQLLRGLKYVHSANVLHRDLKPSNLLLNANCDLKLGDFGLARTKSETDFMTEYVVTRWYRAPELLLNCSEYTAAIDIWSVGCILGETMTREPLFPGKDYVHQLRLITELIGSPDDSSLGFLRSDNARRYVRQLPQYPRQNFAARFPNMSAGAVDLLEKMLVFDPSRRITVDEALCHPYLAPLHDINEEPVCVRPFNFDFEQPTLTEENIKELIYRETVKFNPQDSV

T2: recombinant, full-length histidine-tagged MKS1
T2 chain: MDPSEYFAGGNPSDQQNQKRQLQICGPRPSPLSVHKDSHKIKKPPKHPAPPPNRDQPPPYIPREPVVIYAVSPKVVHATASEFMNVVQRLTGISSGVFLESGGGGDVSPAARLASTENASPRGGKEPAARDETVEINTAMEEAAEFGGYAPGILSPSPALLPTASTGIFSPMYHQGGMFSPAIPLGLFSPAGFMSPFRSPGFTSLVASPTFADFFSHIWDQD

T3: histidine-tagged C1-MKS1 truncation (amino acids 1-196)
T3 chain: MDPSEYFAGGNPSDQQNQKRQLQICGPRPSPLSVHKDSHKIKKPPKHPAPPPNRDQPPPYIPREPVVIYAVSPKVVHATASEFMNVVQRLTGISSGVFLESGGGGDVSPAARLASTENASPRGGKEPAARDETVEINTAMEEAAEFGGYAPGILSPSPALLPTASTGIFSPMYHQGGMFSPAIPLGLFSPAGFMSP

T4: Pep22, synthetic peptide corresponding to amino acid residues 13-35 of MKS1
T4 chain: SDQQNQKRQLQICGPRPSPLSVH

T5: histidine-tagged C2-MKS1 truncation (amino acids 1-123)
T5 chain: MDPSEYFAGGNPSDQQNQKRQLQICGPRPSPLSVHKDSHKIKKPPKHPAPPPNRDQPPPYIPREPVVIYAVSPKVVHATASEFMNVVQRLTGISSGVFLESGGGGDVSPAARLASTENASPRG

T6: Flg22 peptide
T6 chain: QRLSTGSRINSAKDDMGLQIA

T7: histidine-tagged C3-MKS1 truncation (amino acids 1-73)
T7 chain: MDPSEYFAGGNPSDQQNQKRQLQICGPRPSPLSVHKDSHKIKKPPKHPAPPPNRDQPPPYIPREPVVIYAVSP

T8: MPK17 as prey (AD fusion) (UniProt Q84M93 1-486, limits assumed)
T8 sequence (looked up): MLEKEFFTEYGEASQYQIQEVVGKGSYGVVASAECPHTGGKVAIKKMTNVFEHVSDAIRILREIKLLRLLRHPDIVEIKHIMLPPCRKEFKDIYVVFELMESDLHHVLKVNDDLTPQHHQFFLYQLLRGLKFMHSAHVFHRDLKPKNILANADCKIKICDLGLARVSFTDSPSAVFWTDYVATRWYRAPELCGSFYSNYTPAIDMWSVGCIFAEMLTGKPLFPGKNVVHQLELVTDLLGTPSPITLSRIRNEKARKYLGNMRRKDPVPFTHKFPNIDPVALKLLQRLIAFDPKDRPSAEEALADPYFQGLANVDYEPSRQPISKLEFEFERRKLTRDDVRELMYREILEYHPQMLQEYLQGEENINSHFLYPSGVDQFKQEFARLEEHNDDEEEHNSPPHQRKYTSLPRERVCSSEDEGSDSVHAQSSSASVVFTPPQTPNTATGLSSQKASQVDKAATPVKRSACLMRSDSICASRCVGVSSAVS

T9: MPK3 as prey (AD fusion) (UniProt Q39023 1-370)
T9 sequence (looked up): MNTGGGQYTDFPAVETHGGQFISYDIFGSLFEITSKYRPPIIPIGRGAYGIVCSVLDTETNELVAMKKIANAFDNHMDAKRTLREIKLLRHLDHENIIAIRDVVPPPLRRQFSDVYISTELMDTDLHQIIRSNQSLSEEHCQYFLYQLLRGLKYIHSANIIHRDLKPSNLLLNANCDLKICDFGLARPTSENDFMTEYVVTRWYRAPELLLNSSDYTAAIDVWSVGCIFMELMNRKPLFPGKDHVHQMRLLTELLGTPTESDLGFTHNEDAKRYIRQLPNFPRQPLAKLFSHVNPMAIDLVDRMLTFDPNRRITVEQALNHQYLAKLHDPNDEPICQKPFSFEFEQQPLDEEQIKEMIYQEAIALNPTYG

B1: WRKY29 as prey (AD fusion) (other, UniProt Q9SUS1 1-304, looked up, not shown: large carriers)
chain: MDEGDLEAIVRGYSGSGDAFSGESSGTFSPSFCLPMETSSFYEPEMETSGLDELGELYKPFYPFSTQTILTSSVSLPEDSKPFRDDKKQRSHGCLLSNGSRADHIRISESKSKKSKKNQQKRVVEQVKEENLLSDAWAWRKYGQKPIKGSPYPRSYYRCSSSKGCLARKQVERNPQNPEKFTITYTNEHNHELPTRRNSLAGSTRAKTSQPKPTLTKKSEKEVVSSPTSNPMIPSADESSVAVQEMSVAETSTHQAAGAIEGRRLSNGLPSDLMSGSGTFPSFTGDFDELLNSQEFFSGYLWNY
notes: mature
B2: WRKY25 as prey (AD fusion) (other, Arabidopsis thaliana, UniProt O22921 1-393, looked up, not shown: large carriers)
chain: MSSTSFTDLLGSSGVDCYEDDEDLRVSGSSFGGYYPERTGSGLPKFKTAQPPPLPISQSSHNFTFSDYLDSPLLLSSSHSLISPTTGTFPLQGFNGTTNNHSDFPWQLQSQPSNASSALQETYGVQDHEKKQEMIPNEIATQNNNQSFGTERQIKIPAYMVSRNSNDGYGWRKYGQKQVKKSENPRSYFKCTYPDCVSKKIVETASDGQITEIIYKGGHNHPKPEFTKRPSQSSLPSSVNGRRLFNPASVVSEPHDQSENSSISFDYSDLEQKSFKSEYGEIDEEEEQPEMKRMKREGEDEGMSIEVSKGVKEPRVVVQTISDIDVLIDGFRWRKYGQKVVKGNTNPRSYYKCTFQGCGVKKQVERSAADERAVLTTYEGRHNHDIPTALRRS
notes: Library clone; also called transcription factor WRKY25
B3: C1-MKS1 truncation (amino acids 1-196), two-hybrid construct (other, not shown: large carriers)
chain: T3 chain
B4: MPK5 as prey (AD fusion) (other, UniProt Q39025 127-376, looked up, not shown: large carriers)
chain: MDTDLHQIIRSNQSLNDDHCQYFLYQILRGLKYIHSANVLHRDLKPSNLLLNSNCDLKITDFGLARTTSETEYMTEYVVTRWYRAPELLLNSSEYTSAIDVWSVGCIFAEIMTREPLFPGKDYVHQLKLITELIGSPDGASLEFLRSANARKYVKELPKFPRQNFSARFPSMNSTAIDLLEKMLVFDPVKRITVEEALCYPYLSALHDLNDEPVCSNHFSFHFEDPSSTEEEIKELVWLESVKFNPLPSI
B5: HA (influenza hemagglutin antigen)-tagged MPK4 (protein)
chain: YPYDVPDYAYPYDVPDYAYPYDVPDYAYPYDVPDYAYPYDVPDYAYPYDVPDYAMSAESCFGSSGDQSSSKGVATHGGSYVQYNVYGNLFEVSRKYVPPLRPIGRGAYGIVCAATNSETGEEVAIKKIGNAFDNIIDAKRTLREIKLLKHMDHENVIAVKDIIKPPQRENFNDVYIVYELMDTDLHQIIRSNQPLTDDHCRFFLYQLLRGLKYVHSANVLHRDLKPSNLLLNANCDLKLGDFGLARTKSETDFMTEYVVTRWYRAPELLLNCSEYTAAIDIWSVGCILGETMTREPLFPGKDYVHQLRLITELIGSPDDSSLGFLRSDNARRYVRQLPQYPRQNFAARFPNMSAGAVDLLEKMLVFDPSRRITVDEALCHPYLAPLHDINEEPVCVRPFNFDFEQPTLTEENIKELIYRETVKFNPQDSV
B6: MKS1 as bait (BD fusion), MKS1-BD (other)
chain: MKLLSSIEQACDICRLKKLKCSKEKPKCAKCLKNNWECRYSPKTKRSPLTRAHLTEVESRLERLEQLFLLIFPREDLDMILKMDSLQDIKALLTGLFVQDNVNKDAVTDRLASVETDMPLTLRQHRISATSSSEESSNKGQRQLTVSMDPSEYFAGGNPSDQQNQKRQLQICGPRPSPLSVHKDSHKIKKPPKHPAPPPNRDQPPPYIPREPVVIYAVSPKVVHATASEFMNVVQRLTGISSGVFLESGGGGDVSPAARLASTENASPRGGKEPAARDETVEINTAMEEAAEFGGYAPGILSPSPALLPTASTGIFSPMYHQGGMFSPAIPLGLFSPAGFMSPFRSPGFTSLVASPTFADFFSHIWDQD
notes: also called MKS1 bait; MAP Kinase Substrate 1
B7: C2-MKS1 truncation (amino acids 1-123), two-hybrid construct (other, not shown: large carriers)
chain: T5 chain
B8: C3-MKS1 truncation (amino acids 1-73), two-hybrid construct (other, not shown: large carriers)
chain: T7 chain
B9: N1-MKS1, N-terminal truncated form (amino acids 55-222), two-hybrid construct (other)
chain: DQPPPYIPREPVVIYAVSPKVVHATASEFMNVVQRLTGISSGVFLESGGGGDVSPAARLASTENASPRGGKEPAARDETVEINTAMEEAAEFGGYAPGILSPSPALLPTASTGIFSPMYHQGGMFSPAIPLGLFSPAGFMSPFRSPGFTSLVASPTFADFFSHIWDQD
notes: also called N-terminally deleted MKS1; not shown: GAL4 BD or AD fusion partner

The target in data set [1] is B6. Description: directed yeast two-hybrid assay.
Description: (§1) Yeast cells in the two hybrid screen were selected on the indicated nutrient depleted growth-media (-Histidine; -Leucine; -Adenine-Tryptophan) and assayed for β-galactosidase (β-gal) reporter gene activity.
(§2) To test the specificity of the MAP kinase interaction, the interaction of MKS1 with other plant MAP kinases was tested in the yeast two-hybrid assay.
(§3) The specificity of MKS1 interaction with WRKY transcription factors was examined in directed yeast two-hybrid assays with WRKY26 and WRKY29.
For another data set, the target named is T10, MPK4 as bait (BD fusion) (Arabidopsis thaliana, UniProt P04386 1-147; Q39024 1-376).
T10 construct: also called MPK4 bait
The experiment in a line: directed yeast two-hybrid assay.

A further data set has as its target T1, MPK4 as prey (AD fusion). Description: yeast two-hybrid assay.
Data set [2] has as its target T2, recombinant, full-length ….
The target of data set [3] is T3, histidine-tagged C1-MKS1 truncation ….
Data set [4] addresses T4, Pep22, synthetic peptide corresponding ….
Data set [5] deals with T5, histidine-tagged C2-MKS1 truncation ….
In another data set the target is T6, Flg22 peptide.
Data set [6] deals with T7, histidine-tagged C3-MKS1 truncation ….
The target in data set [7] is T8, MPK17 as prey (AD fusion). Description: directed yeast two-hybrid assay.
Description: as §1, §2, §3
A further data set deals with MPK6 as prey (AD fusion) (UniProt Q39026 1-395). The experiment in a line: directed yeast two-hybrid assay.
A further data set concerns the target T9, MPK3 as prey (AD fusion). The experiment in a line: directed yeast two-hybrid assay.
Data set [8] addresses T11, WRKY33 as prey (AD fusion) (Arabidopsis thaliana, UniProt Q8S8P5 332-519, limits assumed).
T11 construct: The library hits were five different truncated WRKY33 proteins; also called W33; transcription factor WRKY33
Description: yeast two-hybrid assay.

Sequence of MPK6 as prey (AD fusion) (Q39026 whole entry, the tested form may be a part): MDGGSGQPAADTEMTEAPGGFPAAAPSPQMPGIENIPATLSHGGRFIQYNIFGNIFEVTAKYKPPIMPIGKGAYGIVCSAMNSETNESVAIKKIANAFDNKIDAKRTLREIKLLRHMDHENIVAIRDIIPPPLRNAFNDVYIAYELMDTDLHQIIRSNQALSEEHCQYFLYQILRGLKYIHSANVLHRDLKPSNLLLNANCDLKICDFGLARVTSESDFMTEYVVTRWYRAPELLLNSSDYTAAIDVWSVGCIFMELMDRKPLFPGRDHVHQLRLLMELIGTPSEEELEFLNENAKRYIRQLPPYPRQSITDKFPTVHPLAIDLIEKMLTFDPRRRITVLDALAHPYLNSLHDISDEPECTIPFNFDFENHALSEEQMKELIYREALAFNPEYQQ
T11 sequence (Q8S8P5 332-519 limits assumed): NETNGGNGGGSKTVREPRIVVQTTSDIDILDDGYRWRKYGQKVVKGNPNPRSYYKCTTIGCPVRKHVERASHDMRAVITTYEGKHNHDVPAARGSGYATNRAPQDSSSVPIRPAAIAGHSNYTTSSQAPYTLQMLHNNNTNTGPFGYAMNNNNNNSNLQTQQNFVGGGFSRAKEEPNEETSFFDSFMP
Description for MPK3 as prey (AD fusion): as §1, §2, §3
Description for MPK4 as bait (BD fusion): as §1, §2, §3
Description for MPK6 as prey (AD fusion): as §1, §2, §3

Turning to B1, the binding result in data set [1] is on record as “no binding”.

In the case of B2, the binding result with MPK4 as bait (BD fusion) was “no binding”.

B3: in the data set with MPK4 as prey (AD fusion), the binding result is given as “binds”.

Consider B4, for which, in data set [1], the binding result is “no binding”.

As for B5, the “in vitro phosphorylation assay (32P-γ-ATP, SDS-PAGE, phosphorimager)” value in data set [2] is “HA-tagged MPK4, immunoprecipitated from Arabidopsis plants, is shown to in vitro phosphorylate MKS1 as efficiently as myelin basic protein”; in data set [3], “HA-tagged MPK4 readily phosphorylated both full-length and C-terminal MKS1 truncations, including C3 MKS1”; in data set [5], “HA-tagged MPK4 readily phosphorylated both full-length and C-terminal MKS1 truncations, including C3 MKS1”; in data set [6] it was “HA-tagged MPK4 readily phosphorylated both full-length and C-terminal MKS1 truncations, including C3 MKS1”. For the same molecule, the “competition of MKS1 phosphorylation by MPK4 in vitro” value in data set [4] was “Pep22 is an efficient competitor of full-length MKS1 for phosphorylation by MPK4, when added to the in vitro assay in a molar ratio of 1:1 (Pep22:MKS1)”; with Flg22 peptide, “the FIG. 22 peptide did not compete MKS1 phosphorylation”.

For the molecule B6, the binding result (in data set [7]; with MPK6 as prey (AD fusion); with MPK3 as prey (AD fusion)) was “no binding” each time.

On to B7, for which the binding result in the data set with MPK4 as prey (AD fusion) is given as “binds”.

B8: the binding result is given as “binds” with MPK4 as prey (AD fusion) and “no binding” in data set [8].

For B9, the binding result in the data set with MPK4 as prey (AD fusion) was “no binding”.
